This note sets out measurements from US20040106557A1 (LICENTIA, published 2004).

B1: Prostate specific antigen (PSA), purified from human seminal fluid (enzyme)
chain: not shown
notes: mature; Mostly captured on wells by MAb 5E4 (IFMA) or on the chip by MAb H117 (SPR); in solution in enzyme assays; also called free PSA; active PSA
B2: GST-A-1 (peptide A-1 expressed as glutathione S-transferase fusion protein) (other)
chain: CVFTSDYAFC
B3: GST-B-2 (peptide B-2 expressed as glutathione S-transferase fusion protein) (other)
chain: CVFAHNYDYLVC
B4: GST-C-4 (peptide C-4 expressed as glutathione S-transferase fusion protein) (other)
chain: CVAYCIEHHCWTC

Experiment [1] has as its target B2. As to the kind of experiment: competition IFMA: GST-peptide (167 nM) preincubated with PSA in solution, then binding to PSA captured by MAb 5E4. The protocol:
(§1) Various amounts of GST-peptide or wild type GST were added to wells containing captured PSA in 200 μL of assay buffer and incubated for 1 h. To test the effect of Zn²⁺ on the binding between GST-peptide and PSA, various concentrations of Zn²⁺ (1-200 μM) were added to the buffer in the incubation step of GST-peptide and PSA. […] After incubation for 1 h the wells were washed and Eu³⁺-labeled anti GST antibody was added. After further incubation and washing the bound fluorescence was measured as described above. When assessing the binding of the GST-peptides to other proteinases, including chymotrypsin, cathepsin G, trypsin, and kallikrein, these proteinases were captured by their specific antibodies coated to the microtitration well. Recombinant hK2 was captured by MAb 5E4, which is known to bind hK2 (24). For assessing the binding of the GST-peptides with complexes of PSA, including PSA-ACT and PSA-α1-protease inhibitor (PSA-API) (28), the complexes were captured by antibodies against ACT and API, respectively. After capturing the various proteinases or PSA complexes, GST-peptide was added and binding was monitored as described above for the GST-peptide IFMA.
(§2) In this connection, we refer also to FIG. 3. GST-C-4 was preincubated with increasing concentrations of PSA in solution for 1 h. Then the samples of the mixtures were added to wells in which PSA had been captured by anti PSA MAb. The binding was measured by IFMA. Data represent mean values from duplicate wells ±SE. The corresponding values for the peptides A-1 (SEQ ID NO 1) and B-2 (SEQ ID NO 6) were 3.3 nM and 1 nM, respectively (data not shown). Preincubation of the GST-peptides with an excess of free PSA inhibited binding to the solid phase PSA. The binding of peptide C-4 (SEQ ID NO 11) to captured PSA was reduced by 50% at a PSA concentration of 0.7 nM.

Experiment [2] has as its target B3. The description is as above. The protocol:
as §1, §2

The target in experiment [3] is B4. The description is as above. Here is the method: as §1, §2
For experiment [4], the target named is B1. As to the kind of experiment: cell-based or functional assay.
The target in experiment [5] is B1. As to the kind of experiment: cell-based or functional assay. The source holds these as a separate data set.
For experiment [6], the target named is B1. As to the kind of experiment: SPR, PSA captured by MAb H117, 1 µM Zn2+.
Experiment [7] deals with B1. Briefly: SPR, PSA captured by MAb H117, 10 µM Zn2+.
Experiment [8] deals with B1. As to the kind of experiment: SPR, PSA captured by MAb H117, 30 µM Zn2+.
Experiment [9] has as its target B1. As to the kind of experiment: SPR, PSA captured by MAb H117, 1 µM Zn2+, single fit, 3.4 µM peptide.
Experiment [10] has as its target B1. Briefly: SPR, PSA captured by MAb H117, 10 µM Zn2+, single fit, 3.4 µM peptide.
Experiment [11] addresses B1. As to the kind of experiment: SPR, PSA captured by MAb H117, 30 µM Zn2+, single fit, 3.4 µM peptide.
The target in experiment [12] is B1. As to the kind of experiment: GST-peptide IFMA, PSA captured by MAb 5E4, Eu-labelled anti GST tracer.
The target of experiment [13] is B1. Briefly: SPR, PSA captured by MAb H117, 0 µM Zn2+, average of 3 fits (3.4-8.5 µM analyte).
Experiment [14] deals with B1. Briefly: SPR, GST-peptide injected over PSA captured by MAb H117; average of 3 concentrations.

In the case of B1, the IC50 in [1] stood at 0.0033 µM; in [2], 0.001 µM; in experiment [3] it was 0.0007 µM.

On to B2, for which the “minimum peptide concentration affecting the activity” value in experiment [4] was 300 nM. The “50% stimulation” value in experiment [5] was 2.2 µM. Further, the results for the “increase (fold) of affinity against 0 µM Zn2+” value in [6], in experiment [7] and in experiment [8] were 3 fold, 5.9 fold and 7.7 fold, respectively. In addition, the Kd in experiment [9] stood at 2.6 µM; in [10] it was 1.4 µM; in experiment [11], 1 µM; in [13] it was 7.8 µM; in experiment [14], 7.8 µM. In addition, the koff in [9] was 0.0047 s⁻¹; in [10] it was 0.0016 s⁻¹; in [11], 0.002 s⁻¹; in [13] it was 0.08 s⁻¹; in experiment [14], 0.08 s⁻¹. Moreover, the kon was determined as 1800 M⁻¹ s⁻¹ in experiment [9]; 1200 M⁻¹ s⁻¹ in experiment [10]; 1900 M⁻¹ s⁻¹ in experiment [11]; 10300 M⁻¹ s⁻¹ in experiment [13]; 10300 M⁻¹ s⁻¹ in experiment [14]. Further, the “Maximal binding (CPS)” value in experiment [12] stood at 219000 CPS.

As to B3, the “minimum peptide concentration affecting the activity” value in experiment [4] was 300 nM. In experiment [5], the “50% stimulation” value is 1.7 µM. The entries for the “increase (fold) of affinity against 0 µM Zn2+” value in experiment [7] and in experiment [8] were 6 fold and 4.7 fold, respectively. The Kd in experiment [9] amounted to 3.1 µM; in experiment [10], 0.6 µM; in [11], 0.8 µM; in experiment [13], 3.5 µM; in experiment [14], 3.5 µM. Also, the koff in experiment [9] was 0.0035 s⁻¹; in experiment [10], 0.0016 s⁻¹; in experiment [11], 0.0006 s⁻¹; in experiment [13], 0.057 s⁻¹; in [14], 0.057 s⁻¹. Besides, the kon in [10] came out at 2650 M⁻¹ s⁻¹; in [11], 830 M⁻¹ s⁻¹; in [13], 16300 M⁻¹ s⁻¹; in [14], 16300 M⁻¹ s⁻¹. The “Maximal binding (CPS)” value in [12] worked out at 428000 CPS.

In the case of B4, the “50% stimulation” value in [5] stood at 0.57 µM. Moreover, the “Maximal binding (CPS)” value in [12] worked out at 790000 CPS.
